Results from patent US20250161473A1 (GAN AND LEE PHARMACEUTICALS, published 2025).
One block for each binder: values may come before it.

Columns and labels:
human HER3-His antigen [1] = target: T1, human HER3-His antigen (human, UniProt P21860 20-643); assay: SPR (Biacore 8K), antibody captured on Protein A chip, HER3-His at 0.625-40 nM as analyte
T1 construct: not shown: His tag
Procedure: (§1) The binding ability of naked antibody, HER3-ADC-19, HER3-ADC-20, HER3-ADC-21 to human HER3-His antigen was determined at 7 different concentrations (0.625-40 nM) using protein A biosensor chip.

human HER3-His antigen [2] = target: T1, human HER3-His antigen; assay: SPR (Biacore 8K), ADC captured on Protein A chip, HER3-His at 0.625-40 nM as analyte
Procedure: as §1

TROP-2-his [3] = target: T2, TROP-2-his (UniProt P09758 27-274); assay: SPR (Biacore), antibody captured on Protein A chip, TROP-2-his flowed over, 1:1 Langmuir fit
T2 construct: also called antigen TROP-2-his; not shown: his tag
T2 sequence (looked up): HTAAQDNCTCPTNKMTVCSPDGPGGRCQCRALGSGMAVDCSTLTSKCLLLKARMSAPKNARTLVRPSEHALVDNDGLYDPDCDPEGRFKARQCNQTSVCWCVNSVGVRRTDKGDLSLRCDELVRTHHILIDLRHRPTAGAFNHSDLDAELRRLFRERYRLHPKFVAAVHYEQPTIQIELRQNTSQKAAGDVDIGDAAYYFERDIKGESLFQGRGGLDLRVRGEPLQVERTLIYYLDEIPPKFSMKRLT
Excerpt: (§2) In this test example, the affinity of the TROP-2 antibody and the TROP-2-ADC compound obtained according to the above examples to TROP-2 is detected by means of capturing antibody.
(§3) Use the Sensor Chip Protein A biosensor chip (Cytiva) to capture the antibody (TROP-2 antibody or TROP-2-ADC compound), then flow through the antigen TROP-2-his on the surface of the chip, and use the Biacore K8 instrument (Cytiva) Real-time detection of reaction signals to obtain association and dissociation curves. After the dissociation of each experiment cycle, the chip was washed and regenerated with regeneration buffer. After the experiment, GE Biacore K8 Evaluation version 3.0 software was used to fit the data with the (1:1) Langmuir model to obtain the affinity value.

TROP-2-his [4] = target: T2, TROP-2-his; assay: SPR (Biacore), ADC captured on Protein A chip, TROP-2-his flowed over, 1:1 Langmuir fit
Excerpt: as §2, §3

B2: HER3-ADC-21 (antibody, human IgG1, kappa, V domains shown)
VH: QVQLQQWGAGLLKPSETLSLTCAVYGGSFSGYYWSWIRQPPGKGLEWIGEINHSGSTNYNPSLKSRVTISVETSKNQFSLKLSSVTAADTAVYYCARDKWTWYFDLWGRGTLVTVSS
VL: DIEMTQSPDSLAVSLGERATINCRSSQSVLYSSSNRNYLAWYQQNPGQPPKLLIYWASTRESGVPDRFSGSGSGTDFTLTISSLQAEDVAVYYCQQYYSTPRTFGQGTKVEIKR
modifications: drug-linker compound 68 coupled to cysteines of the reduced interchain disulfide bonds; positions not given; drug-linker compound 68 (maleimide linker, exatecan derivative) coupled to cysteines of the reduced interchain disulfide bonds; positions not given; DAR 8.00 for the whole antibody
- Kd (human HER3-His antigen [2]): 2.08 nM
- koff (human HER3-His antigen [2]): 0.000451 s⁻¹
- kon (human HER3-His antigen [2]): 217000 M⁻¹ s⁻¹

B4: TROP-2-ADC-19 (antibody, human IgG1, kappa, V domains shown)
VH: QVQLQQSGSELKKPGASVKVSCKASGYTFTNYGMNWVKQAPGQGLKWMGWINTYTGEPTYTDDFKGRFAFSLDTSVSTAYLQISSLKADDTAVYFCARGGFGSSYWYFDVWGQGSLVTVSS
VL: DIQLTQSPSSLSASVGDRVSITCKASQDVSIAVAWYQQKPGKAPKLLIYSASYRYTGVPDRFSGSGSGTDFTLTISSLQPEDFAVYYCQQHYITPLTFGAGTKVEIKR
modifications: drug-linker compound 66 coupled to cysteines of the reduced interchain disulfide bonds; positions not given; drug-linker compound 66 (maleimide linker, exatecan derivative) coupled to cysteines of the reduced interchain disulfide bonds; positions not given; DAR 4.65 for the whole antibody
- Kd (TROP-2-his [4]): 0.319 nM

B5: TROP-2-ADC-3 (antibody, human IgG1, kappa, V domains shown)
VH: QVQLQQSGSELKKPGASVKVSCKASGYTFTNYGMNWVKQAPGQGLKWMGWINTYTGEPTYTDDFKGRFAFSLDTSVSTAYLQISSLKADDTAVYFCARGGFGSSYWYFDVWGQGSLVTVSS
VL: DIQLTQSPSSLSASVGDRVSITCKASQDVSIAVAWYQQKPGKAPKLLIYSASYRYTGVPDRFSGSGSGTDFTLTISSLQPEDFAVYYCQQHYITPLTFGAGTKVEIKR
modifications: drug-linker compound 50 coupled to cysteines of the reduced interchain disulfide bonds; positions not given; drug-linker compound 50 (maleimide linker, exatecan derivative) coupled to cysteines of the reduced interchain disulfide bonds; positions not given; DAR 14.74 for the whole antibody
- Kd (TROP-2-his [4]): 0.276 nM

B6: TROP-2-ADC-4 (antibody, human IgG1, kappa, V domains shown)
VH: QVQLQQSGSELKKPGASVKVSCKASGYTFTNYGMNWVKQAPGQGLKWMGWINTYTGEPTYTDDFKGRFAFSLDTSVSTAYLQISSLKADDTAVYFCARGGFGSSYWYFDVWGQGSLVTVSS
VL: DIQLTQSPSSLSASVGDRVSITCKASQDVSIAVAWYQQKPGKAPKLLIYSASYRYTGVPDRFSGSGSGTDFTLTISSLQPEDFAVYYCQQHYITPLTFGAGTKVEIKR
modifications: drug-linker compound 51 coupled to cysteines of the reduced interchain disulfide bonds; positions not given; drug-linker compound 51 (maleimide linker, exatecan derivative) coupled to cysteines of the reduced interchain disulfide bonds; positions not given; DAR 8.49 for the whole antibody
- Kd (TROP-2-his [4]): 0.293 nM

Next, values leading:

- Kd (human HER3-His antigen [1]): 1.41 nM
- koff (human HER3-His antigen [1]): 0.000363 s⁻¹
- kon (human HER3-His antigen [1]): 257000 M⁻¹ s⁻¹
B1: anti-human HER3 monoclonal antibody (antibody, human IgG1, kappa, V domains shown)
VH: QVQLQQWGAGLLKPSETLSLTCAVYGGSFSGYYWSWIRQPPGKGLEWIGEINHSGSTNYNPSLKSRVTISVETSKNQFSLKLSSVTAADTAVYYCARDKWTWYFDLWGRGTLVTVSS
VL: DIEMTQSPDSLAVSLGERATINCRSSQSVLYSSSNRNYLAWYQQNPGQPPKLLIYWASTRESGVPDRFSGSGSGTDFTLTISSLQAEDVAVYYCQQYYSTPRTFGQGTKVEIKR
notes: also called Naked antibody; HER3 antibody

- Kd (TROP-2-his [3]): 0.318 nM
B3: anti-human TROP-2 monoclonal antibody (anti-hRS7 antibody) (antibody, human IgG1, kappa, V domains shown)
VH: QVQLQQSGSELKKPGASVKVSCKASGYTFTNYGMNWVKQAPGQGLKWMGWINTYTGEPTYTDDFKGRFAFSLDTSVSTAYLQISSLKADDTAVYFCARGGFGSSYWYFDVWGQGSLVTVSS
VL: DIQLTQSPSSLSASVGDRVSITCKASQDVSIAVAWYQQKPGKAPKLLIYSASYRYTGVPDRFSGSGSGTDFTLTISSLQPEDFAVYYCQQHYITPLTFGAGTKVEIKR
notes: also called Naked antibody (anti-TROP-2 monoclonal antibody); TROP-2 antibody

- Kd (TROP-2-his [4]): 0.262 nM
B7: TROP-2-ADC-23 (antibody, human IgG1, kappa, V domains shown)
VH: QVQLQQSGSELKKPGASVKVSCKASGYTFTNYGMNWVKQAPGQGLKWMGWINTYTGEPTYTDDFKGRFAFSLDTSVSTAYLQISSLKADDTAVYFCARGGFGSSYWYFDVWGQGSLVTVSS
VL: DIQLTQSPSSLSASVGDRVSITCKASQDVSIAVAWYQQKPGKAPKLLIYSASYRYTGVPDRFSGSGSGTDFTLTISSLQPEDFAVYYCQQHYITPLTFGAGTKVEIKR
modifications: drug-linker compound 70 coupled to cysteines of the reduced interchain disulfide bonds; positions not given; drug-linker compound 70 (maleimide linker, exatecan derivative) coupled to cysteines of the reduced interchain disulfide bonds; positions not given; DAR 6.42 for the whole antibody

- Kd (TROP-2-his [4]): 0.275 nM
B8: TROP-2-ADC-21 (antibody, human IgG1, kappa, V domains shown)
VH: QVQLQQSGSELKKPGASVKVSCKASGYTFTNYGMNWVKQAPGQGLKWMGWINTYTGEPTYTDDFKGRFAFSLDTSVSTAYLQISSLKADDTAVYFCARGGFGSSYWYFDVWGQGSLVTVSS
VL: DIQLTQSPSSLSASVGDRVSITCKASQDVSIAVAWYQQKPGKAPKLLIYSASYRYTGVPDRFSGSGSGTDFTLTISSLQPEDFAVYYCQQHYITPLTFGAGTKVEIKR
modifications: drug-linker compound 68 coupled to cysteines of the reduced interchain disulfide bonds; positions not given; drug-linker compound 68 (maleimide linker, exatecan derivative) coupled to cysteines of the reduced interchain disulfide bonds; positions not given; DAR 4.78 for the whole antibody
